# From patent US20240018502A1
# Molecular target: plasma purified human complement protein C3 (human) (UniProt P01024)
# Experiment: cell-based or functional assay
# Chain of plasma purified human complement protein C3 (human) (P01024 23-667, chain 1 of 2): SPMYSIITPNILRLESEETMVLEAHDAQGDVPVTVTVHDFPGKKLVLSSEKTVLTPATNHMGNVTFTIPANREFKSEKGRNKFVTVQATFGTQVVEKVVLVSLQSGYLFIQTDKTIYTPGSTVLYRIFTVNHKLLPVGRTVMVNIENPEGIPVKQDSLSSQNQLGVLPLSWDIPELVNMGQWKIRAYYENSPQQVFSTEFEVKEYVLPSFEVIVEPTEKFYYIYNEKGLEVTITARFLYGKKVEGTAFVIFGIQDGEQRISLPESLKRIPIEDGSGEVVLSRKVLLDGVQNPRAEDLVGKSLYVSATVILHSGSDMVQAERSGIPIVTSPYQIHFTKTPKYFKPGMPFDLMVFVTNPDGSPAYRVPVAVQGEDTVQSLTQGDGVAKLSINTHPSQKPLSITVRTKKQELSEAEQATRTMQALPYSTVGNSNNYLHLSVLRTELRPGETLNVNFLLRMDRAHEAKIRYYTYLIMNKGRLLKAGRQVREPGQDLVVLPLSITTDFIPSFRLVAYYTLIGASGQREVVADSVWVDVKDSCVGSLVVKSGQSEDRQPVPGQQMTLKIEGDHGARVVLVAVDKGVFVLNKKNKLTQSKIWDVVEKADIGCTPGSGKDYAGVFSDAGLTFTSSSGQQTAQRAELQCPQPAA
# Chain of plasma purified human complement protein C3 (human) (P01024 672-1663, chain 2 of 2): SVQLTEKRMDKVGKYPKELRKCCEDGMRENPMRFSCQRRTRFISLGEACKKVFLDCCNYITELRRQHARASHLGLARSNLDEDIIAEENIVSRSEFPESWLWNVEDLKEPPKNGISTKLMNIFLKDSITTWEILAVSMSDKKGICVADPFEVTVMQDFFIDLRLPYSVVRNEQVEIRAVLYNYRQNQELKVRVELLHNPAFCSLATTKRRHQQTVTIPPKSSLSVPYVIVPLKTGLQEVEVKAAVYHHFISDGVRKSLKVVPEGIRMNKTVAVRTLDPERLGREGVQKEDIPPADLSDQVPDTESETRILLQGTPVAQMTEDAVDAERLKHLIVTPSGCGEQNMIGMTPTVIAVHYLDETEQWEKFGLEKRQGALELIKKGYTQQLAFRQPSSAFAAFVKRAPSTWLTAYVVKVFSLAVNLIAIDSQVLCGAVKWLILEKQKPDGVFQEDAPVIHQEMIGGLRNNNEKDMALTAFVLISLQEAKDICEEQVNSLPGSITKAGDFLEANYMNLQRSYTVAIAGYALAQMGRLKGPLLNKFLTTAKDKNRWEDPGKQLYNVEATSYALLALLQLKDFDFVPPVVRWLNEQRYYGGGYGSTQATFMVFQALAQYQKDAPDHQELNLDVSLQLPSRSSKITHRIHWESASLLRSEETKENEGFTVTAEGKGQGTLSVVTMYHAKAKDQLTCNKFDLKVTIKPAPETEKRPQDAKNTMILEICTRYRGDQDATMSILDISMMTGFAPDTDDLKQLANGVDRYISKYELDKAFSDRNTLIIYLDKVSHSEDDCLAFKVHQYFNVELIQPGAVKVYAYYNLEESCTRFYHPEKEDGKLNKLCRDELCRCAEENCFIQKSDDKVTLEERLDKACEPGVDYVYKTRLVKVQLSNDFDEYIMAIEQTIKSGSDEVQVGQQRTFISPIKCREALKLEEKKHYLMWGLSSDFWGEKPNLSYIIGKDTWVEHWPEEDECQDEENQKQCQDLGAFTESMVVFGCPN
EC50 hC3 cleavage,EC50 of hC3 cleavage,Binder
36.8 nM,,MTSP-1 protease domain I41G/F97L/F99L/C122S/G151T/Q175M/Q192D/D217M (enzyme) VVGGTDADEGEWPWQVSLHALGQGHGCGASLISPNWLVSAAHCYIDDRGFRYSDPTQWTAFLGLHDQSQRSAPGVQERRLKRIISHPFFNDLTLDYDIALLELEKPAEYSSMVRPISLPDASHVFPAGKAIWVTGWGHTQYGGTTALILQKGEIRVINQTTCENLLPQMITPRMMCVGFLSGGVDSCDGDSGGPLSSVEADGRIFQAGVVSWGMGCAQRNKPGVYTRLPLFRDWIKENTGV
524 nM,,MTSP-1 protease domain F97S/F99L/C122S/G151N/Q175I/Q192T/D217T (enzyme) VVGGTDADEGEWPWQVSLHALGQGHICGASLISPNWLVSAAHCYIDDRGFRYSDPTQWTAFLGLHDQSQRSAPGVQERRLKRIISHPFFNDSTLDYDIALLELEKPAEYSSMVRPISLPDASHVFPAGKAIWVTGWGHTQYGGTNALILQKGEIRVINQTTCENLLPQIITPRMMCVGFLSGGVDSCTGDSGGPLSSVEADGRIFQAGVVSWGTGCAQRNKPGVYTRLPLFRDWIKENTGV
108 nM,,MTSP-1 protease domain I41G/F99L/C122S/G151N/Q175I/Q192T/D217T (enzyme) VVGGTDADEGEWPWQVSLHALGQGHGCGASLISPNWLVSAAHCYIDDRGFRYSDPTQWTAFLGLHDQSQRSAPGVQERRLKRIISHPFFNDFTLDYDIALLELEKPAEYSSMVRPISLPDASHVFPAGKAIWVTGWGHTQYGGTNALILQKGEIRVINQTTCENLLPQIITPRMMCVGFLSGGVDSCTGDSGGPLSSVEADGRIFQAGVVSWGTGCAQRNKPGVYTRLPLFRDWIKENTGV
105 nM,,MTSP-1 protease domain I41G/F97S/F99L/C122S/G151N/Q192T/D217T (enzyme) VVGGTDADEGEWPWQVSLHALGQGHGCGASLISPNWLVSAAHCYIDDRGFRYSDPTQWTAFLGLHDQSQRSAPGVQERRLKRIISHPFFNDSTLDYDIALLELEKPAEYSSMVRPISLPDASHVFPAGKAIWVTGWGHTQYGGTNALILQKGEIRVINQTTCENLLPQQITPRMMCVGFLSGGVDSCTGDSGGPLSSVEADGRIFQAGVVSWGTGCAQRNKPGVYTRLPLFRDWIKENTGV
3670 nM,,MTSP-1 protease domain F97Q/F99L/C122S/Q175N/Q192V/D217G (enzyme) VVGGTDADEGEWPWQVSLHALGQGHICGASLISPNWLVSAAHCYIDDRGFRYSDPTQWTAFLGLHDQSQRSAPGVQERRLKRIISHPFFNDQTLDYDIALLELEKPAEYSSMVRPISLPDASHVFPAGKAIWVTGWGHTQYGGTGALILQKGEIRVINQTTCENLLPQNITPRMMCVGFLSGGVDSCVGDSGGPLSSVEADGRIFQAGVVSWGGGCAQRNKPGVYTRLPLFRDWIKENTGV
155 nM,,MTSP-1 protease domain I41G/F97S/F99L/C122S/Q175I/Q192T/D217T (enzyme) VVGGTDADEGEWPWQVSLHALGQGHGCGASLISPNWLVSAAHCYIDDRGFRYSDPTQWTAFLGLHDQSQRSAPGVQERRLKRIISHPFFNDSTLDYDIALLELEKPAEYSSMVRPISLPDASHVFPAGKAIWVTGWGHTQYGGTGALILQKGEIRVINQTTCENLLPQIITPRMMCVGFLSGGVDSCTGDSGGPLSSVEADGRIFQAGVVSWGTGCAQRNKPGVYTRLPLFRDWIKENTGV
49.4 nM,,MTSP-1 protease domain I41E/F97V/F99L/C122S/G151N/Q175L/Q192S/D217H (enzyme) VVGGTDADEGEWPWQVSLHALGQGHECGASLISPNWLVSAAHCYIDDRGFRYSDPTQWTAFLGLHDQSQRSAPGVQERRLKRIISHPFFNDVTLDYDIALLELEKPAEYSSMVRPISLPDASHVFPAGKAIWVTGWGHTQYGGTNALILQKGEIRVINQTTCENLLPQLITPRMMCVGFLSGGVDSCSGDSGGPLSSVEADGRIFQAGVVSWGHGCAQRNKPGVYTRLPLFRDWIKENTGV
88 nM,,MTSP-1 protease domain I41D/F97R/F99L/C122S/G151Q/Q175R/Q192V/D217L (enzyme) VVGGTDADEGEWPWQVSLHALGQGHDCGASLISPNWLVSAAHCYIDDRGFRYSDPTQWTAFLGLHDQSQRSAPGVQERRLKRIISHPFFNDRTLDYDIALLELEKPAEYSSMVRPISLPDASHVFPAGKAIWVTGWGHTQYGGTQALILQKGEIRVINQTTCENLLPQRITPRMMCVGFLSGGVDSCVGDSGGPLSSVEADGRIFQAGVVSWGLGCAQRNKPGVYTRLPLFRDWIKENTGV

# Continued, binder first:
Binder,EC50 hC3 cleavage,EC50 of hC3 cleavage
MTSP-1 protease domain I41G/F97S/C122S/G151N/Q175I/Q192T/D217T (enzyme) VVGGTDADEGEWPWQVSLHALGQGHGCGASLISPNWLVSAAHCYIDDRGFRYSDPTQWTAFLGLHDQSQRSAPGVQERRLKRIISHPFFNDSTFDYDIALLELEKPAEYSSMVRPISLPDASHVFPAGKAIWVTGWGHTQYGGTNALILQKGEIRVINQTTCENLLPQIITPRMMCVGFLSGGVDSCTGDSGGPLSSVEADGRIFQAGVVSWGTGCAQRNKPGVYTRLPLFRDWIKENTGV,860 nM,
MTSP-1 protease domain I41R/F97T/F99L/C122S/G151N/Q175T/Q192T/D217I (enzyme) VVGGTDADEGEWPWQVSLHALGQGHRCGASLISPNWLVSAAHCYIDDRGFRYSDPTQWTAFLGLHDQSQRSAPGVQERRLKRIISHPFFNDTTLDYDIALLELEKPAEYSSMVRPISLPDASHVFPAGKAIWVTGWGHTQYGGTNALILQKGEIRVINQTTCENLLPQTITPRMMCVGFLSGGVDSCTGDSGGPLSSVEADGRIFQAGVVSWGIGCAQRNKPGVYTRLPLFRDWIKENTGV,159 nM,
MTSP-1 protease domain I41E/F97R/F99L/C122S/G151Q/Q175G/Q192T/D217V (enzyme) VVGGTDADEGEWPWQVSLHALGQGHECGASLISPNWLVSAAHCYIDDRGFRYSDPTQWTAFLGLHDQSQRSAPGVQERRLKRIISHPFFNDRTLDYDIALLELEKPAEYSSMVRPISLPDASHVFPAGKAIWVTGWGHTQYGGTQALILQKGEIRVINQTTCENLLPQGITPRMMCVGFLSGGVDSCTGDSGGPLSSVEADGRIFQAGVVSWGVGCAQRNKPGVYTRLPLFRDWIKENTGV,13 nM,
MTSP-1 protease domain I41D/F97T/F99L/C122S/G151N/Q175S/Q192T/D217A (enzyme) VVGGTDADEGEWPWQVSLHALGQGHDCGASLISPNWLVSAAHCYIDDRGFRYSDPTQWTAFLGLHDQSQRSAPGVQERRLKRIISHPFFNDTTLDYDIALLELEKPAEYSSMVRPISLPDASHVFPAGKAIWVTGWGHTQYGGTNALILQKGEIRVINQTTCENLLPQSITPRMMCVGFLSGGVDSCTGDSGGPLSSVEADGRIFQAGVVSWGAGCAQRNKPGVYTRLPLFRDWIKENTGV,70.9 nM,
MTSP-1 protease domain I41G/F97S/F99L/C122S/G151N/Q175I/Q192T (enzyme) VVGGTDADEGEWPWQVSLHALGQGHGCGASLISPNWLVSAAHCYIDDRGFRYSDPTQWTAFLGLHDQSQRSAPGVQERRLKRIISHPFFNDSTLDYDIALLELEKPAEYSSMVRPISLPDASHVFPAGKAIWVTGWGHTQYGGTNALILQKGEIRVINQTTCENLLPQIITPRMMCVGFLSGGVDSCTGDSGGPLSSVEADGRIFQAGVVSWGDGCAQRNKPGVYTRLPLFRDWIKENTGV,97.7 nM,
MTSP-1 protease domain I41G/F97S/F99L/C122S/G151N/Q175I/D217T (enzyme) VVGGTDADEGEWPWQVSLHALGQGHGCGASLISPNWLVSAAHCYIDDRGFRYSDPTQWTAFLGLHDQSQRSAPGVQERRLKRIISHPFFNDSTLDYDIALLELEKPAEYSSMVRPISLPDASHVFPAGKAIWVTGWGHTQYGGTNALILQKGEIRVINQTTCENLLPQIITPRMMCVGFLSGGVDSCQGDSGGPLSSVEADGRIFQAGVVSWGTGCAQRNKPGVYTRLPLFRDWIKENTGV,107 nM,
MTSP-1 protease domain I41T/F97H/F99L/C122S/G151N/Q175H/Q192V/D217L (enzyme) VVGGTDADEGEWPWQVSLHALGQGHTCGASLISPNWLVSAAHCYIDDRGFRYSDPTQWTAFLGLHDQSQRSAPGVQERRLKRIISHPFFNDHTLDYDIALLELEKPAEYSSMVRPISLPDASHVFPAGKAIWVTGWGHTQYGGTNALILQKGEIRVINQTTCENLLPQHITPRMMCVGFLSGGVDSCVGDSGGPLSSVEADGRIFQAGVVSWGLGCAQRNKPGVYTRLPLFRDWIKENTGV,131 nM,
MTSP-1 Q38H/I41S/D60bT/F60eS/Y60gW/D96K/F97D/ins97aA/T98P/F99L/C122S/G151N/Q175L/Q192D (enzyme) VVGGTDADEGEWPWQVSLHALGHGHSCGASLISPNWLVSAAHCYIDTRGSRWSDPTQWTAFLGLHDQSQRSAPGVQERRLKRIISHPFFNKDAPLDYDIALLELEKPAEYSSMVRPISLPDASHVFPAGKAIWVTGWGHTQYGGTNALILQKGEIRVINQTTCENLLPQLITPRMMCVGFLSGGVDSCDGDSGGPLSSVEADGRIFQAGVVSWGDGCAQRNKPGVYTRLPLFRDWIKENTGV,,5.92 nM
MTSP-1 Q38H/I41S/D60bT/F60eS/Y60gW/F97G/ins97aV/T98P/F99L/C122S/G151H/Q175L/Q192D (enzyme) VVGGTDADEGEWPWQVSLHALGHGHSCGASLISPNWLVSAAHCYIDTRGSRWSDPTQWTAFLGLHDQSQRSAPGVQERRLKRIISHPFFNDGVPLDYDIALLELEKPAEYSSMVRPISLPDASHVFPAGKAIWVTGWGHTQYGGTHALILQKGEIRVINQTTCENLLPQLITPRMMCVGFLSGGVDSCDGDSGGPLSSVEADGRIFQAGVVSWGDGCAQRNKPGVYTRLPLFRDWIKENTGV,,169 nM
MTSP-1 protease domain F97R/ins97aT/T98V/C122S/Q175M/Q192T/D217S (enzyme) VVGGTDADEGEWPWQVSLHALGQGHICGASLISPNWLVSAAHCYIDDRGFRYSDPTQWTAFLGLHDQSQRSAPGVQERRLKRIISHPFFNDRTVFDYDIALLELEKPAEYSSMVRPISLPDASHVFPAGKAIWVTGWGHTQYGGTGALILQKGEIRVINQTTCENLLPQMITPRMMCVGFLSGGVDSCTGDSGGPLSSVEADGRIFQAGVVSWGSGCAQRNKPGVYTRLPLFRDWIKENTGV,42.2 nM,
MTSP-1 protease domain F97L/ins97aM/T98N/F99L/C122S/Q175T/Q192T/D217S (enzyme) VVGGTDADEGEWPWQVSLHALGQGHICGASLISPNWLVSAAHCYIDDRGFRYSDPTQWTAFLGLHDQSQRSAPGVQERRLKRIISHPFFNDLMNLDYDIALLELEKPAEYSSMVRPISLPDASHVFPAGKAIWVTGWGHTQYGGTGALILQKGEIRVINQTTCENLLPQTITPRMMCVGFLSGGVDSCTGDSGGPLSSVEADGRIFQAGVVSWGSGCAQRNKPGVYTRLPLFRDWIKENTGV,256 nM,
MTSP-1 protease domain F97V/ins97aH/T98R/F99L/C122S/Q175R/Q192G/D217S (enzyme) VVGGTDADEGEWPWQVSLHALGQGHICGASLISPNWLVSAAHCYIDDRGFRYSDPTQWTAFLGLHDQSQRSAPGVQERRLKRIISHPFFNDVHRLDYDIALLELEKPAEYSSMVRPISLPDASHVFPAGKAIWVTGWGHTQYGGTGALILQKGEIRVINQTTCENLLPQRITPRMMCVGFLSGGVDSCGGDSGGPLSSVEADGRIFQAGVVSWGSGCAQRNKPGVYTRLPLFRDWIKENTGV,905 nM,
MTSP-1 protease domain F97S/ins97aN/T98G/F99M/C122S/Q175T/Q192T/D217S (enzyme) VVGGTDADEGEWPWQVSLHALGQGHICGASLISPNWLVSAAHCYIDDRGFRYSDPTQWTAFLGLHDQSQRSAPGVQERRLKRIISHPFFNDSNGMDYDIALLELEKPAEYSSMVRPISLPDASHVFPAGKAIWVTGWGHTQYGGTGALILQKGEIRVINQTTCENLLPQTITPRMMCVGFLSGGVDSCTGDSGGPLSSVEADGRIFQAGVVSWGSGCAQRNKPGVYTRLPLFRDWIKENTGV,2400 nM,
